Laboratory results from the DeepSol protein solubility set.

experiment: soluble on expression in E. coli; label from the status in PepcDB or PDB records

Row | Sequence | soluble on expression in E. coli
1 | MDGYTGSHVVRCALRLAPLVFVRPGELRKAEWKDIDLDGGEWRYTVTKTNTPHIVPLSTQAVEILKELQALTGRSRFVFPGARTNGRPMSDNAILAALRRMGIDKEEMSGHGFRAMARTILDEVLGVRPDFIEHQLAHSVRDPLEHHHHHH | not soluble
2 | MAFELPKLPYAFDALEPHFDKETMEIHHDRHHNTYVTKLNAAVEGTDLESKSIEEIVANLDSVPANIQTAVRNNGGGHLNHSLFWELLSPNSEEKGTVVEKIKEQWGSLEEFKKEFADKAAARFGSGWAWLVVNNGQLEIVTTPNQDNPLTEGKTPILGLDVWEHAYYLKYQNKRPDYIGAFWNVVNWEKVDELYNATK | not soluble
3 | MAHHHHHHMDWVKVMNLIYASRDVDATTLAFNAAMSAVEKKGCLKSMLEVFEIMKKKNIKPDLVSYKLLLRLCANYHLGEHAEILFDEMVETDKLTPTYEIYALMISCFAKVGDGHRAVEFVEKLRSDPLVGEVNNWGEAGGVSGSGSADDRQHPAWRDSFAEEATTEEGAEAEGSTYTNQFKEITKKIKHIERGSSKIQYSEYANVIFACNMSNLPEQGIKYFEELLNTGKYMPSTLLLESIFDLLAKNGNYEKCLDYYNKLKDDPNFKKAINVNILNNILKALSVQGKINIIEDLWKNEFDELMLTPNEISYGYMLKVYSIVDDYEKAFKLFKEMQMKKMLSNKNIIPFVYTINAFKNCGIYNYAIYVLRVAKLLGVSSEDLLKLYNDAMVACVNAKKYDVVISLYAELITMQEKGAPSLEISISTLGFVLLAFRELDMREDFTNLKNLIIQKNYKLTPLCGQLVSEQPH | not soluble
4 | MNSPDRFRLTSCDVTPDRTGMFTAIWTCYGRLAPGWRVVFGIESGTDRLEIEAVADAGVCAPLPDGVADAWLICNGLLIAVLTPELGARLTGGSGYLRFSSSPPHDAVSSTPAHVHRAGIPPRG | not soluble
5 | GVFTYESEFTSEIPPPRLFKAFVLDADNLVPKIAPQAIKHSEILEGDGGPGTIKKITFGEGSQYGYVKHKIDSIDKENYSYSYTLIEGDALGDTLEKISYETKLVASPSGGSIIKSTSHYHTKGNVEIKEEHVKAGKEKASNLFKLIETYLKGHPDAYN | soluble
6 | MGSDKIHHHHHHMQKRNELPGHLAVAPFTLDSARASGVSRARLRRKDVVHVGRGLYRPSDWNFELEAAARALSTASPGAWISHVTAARLHCQLLPPWLADSTELHLSKPRALPSVRRSGVIGHTVVALEDEIESIDGLRVSTRSRTWLDLARRLPVSDLVCMGDQLIRVPRVAFEGRTRPYDTLDGLRTLVGRHPNLQGVVRAREALHLMRVGADSAPESLLRLAMADAGLPEPELQLALRPTDAVSPTADLGYRHRRLAIQYDGEHHLLDAQIFSDRRRDKAFESAGWTVLILGKDDLADGCRPAVSKIKRLLRTAWLDHPQASGFADAG | not soluble
7 | MGSDKIHHHHHHLAVMPFSPDQIIRPEILALSAYHVPPACGMIKLDAMENPYPLPPELRDEIAKLAGETPVNRYPDPDAAALKAALREALSIPDGMDIMLGNGSDEIIQIIALACGKPGAVLMSVEPAFVMFRMIATFASMNYVGVPLHPDFSLDAEAMLAAIARYQPAVIFIAYPNNPTGNLFDAVEISRIIDAAPGVVVVDEAYHAFADASFMDKLAHHPNLLLMRTLSKLGMAGLRLGLLAGKPEWLRQLEKLRLPYNVGIVTQRIAEKLLQHRDVLLQQAAAIKLERSSMSRRLAELEGIEVFPTDANFILFRLNQDHKATQVFQELKQRGILVKNLDGAHPLLKNCLRVTVGMPDENAQFLEVLQTLLVKVEAKA | not soluble
8 | MGSSHHHHHHSSGLVPRSGHMEPRGTKRKAEKTEVEKPLNKLPRAVPSLRTQPSLYSGPFPFYRRPSELGCFSLDAQRQYHGDARALRYYSPPPINGPGPDFDLRDGYPDRYQPRDEEVQERLDHLLRWVLEHRNQLEGGPGWLAGATVTWRGHLTKLLTTPYERQEGWQLAASRFQGTLYLSEVETPAARAQRLARPPLLRELMYMGYKFEQYMCADKPGGSPDPSGEVNTNVAYCSVLRSRLGNHPLLFSGEVDCLNPQAPCTQPPSCYVELKTSKEMHSPGQWRSFYRHKLLKWWAQSFLPGVPHVVAGFRNPEGFVCSLKTFPTMEMFENVRNDREGWNPSVCMNFCAAFLSFAQSTVVQDDPRLVHLFSWEPGGPVTVSVHRDAPYAFLPSWYVETMTQDLPPLSKTPSPKD | soluble
9 | MSLIKKVLPLAEQLRPKNLNDIVGQDHILGENGLITKTIESQIPLSVILWGPPGCGKTSIARLYAQAFNMQFISMSAIFSGVADLKKTIKEAQNQPLFHKGTLLFVDEIHRFNKSQQDAFLPFVENGTIILIGATTENPSFYLNGALLSRLRVLPIYPLDGFSLEQLLERYEKQFAPLPLTAEARHWLITCAQGDGRYLYNLIENLRYASKQILDIPLLEKIFQKRSPLFDKRGDQHYNLISALHKSVRGSDPNAAIYWFTRMLEGGEEPLFLARRLIRMAVEDIGLSDPQALPLAIAAKDAYEMLGSPEGELALAEVVIYLALAPKSNAVYRAFGMAKESASKTSYLNPPLTILNAPTKMMKNLGYGKDYQYDPDLPEAFSGQNYFPDSLEKQHFYEPVERGFERELKKRLEYFEQLRLKKKEGHHHHHH | soluble
10 | MKNDVISPEFDENGRPLRRIRSFVRRQGRLTKGQEHALENYWPVMGVEFSEAPVDFATLFGREAPVTLEIGFGMGASLVAMAKARPEQNFLGIEVHSPGVGACLASANEEGVENLRVMCHDAVEVLHKMIPDNSLSMVQLFFPDPWHKARHNKRRIVQVPFAELVLSKLKLGGVFHMATDWEAYAEHMLEVMSSIDGYKNLSESNDYVPRPESRPVTKFEQRGHRLGHGVWDLMFERVK | not soluble
11 | MSPEYAMEGIFSVKSDVFSFGVLVLEIVSGKRNRGFHNSGQDNNLLGYTWENWKEGKGLEIVDSIIVDSSSSMSLFQPHEVLRCIQIGLLCVQERAEDRPKMSSVIVPFCTR | not soluble
12 | MGSDKIHHHHHHMIINNNIKELSIAHLQLIVCLIKHGNSCVVSDELGISQSSISYHLRRLRVIFADEMFIRTGKGLKPTERCIQIGHFAQDLINRVEEELIHANDFVPKQMKRELTLIAADTACGWFSTLFSDMQKTLPRVTLCARPWNLKSMEDLDSGAVDFGIHIIENSKKGIYDMDIAPCYRLCVVRDGHPLISKGEVTLKDLEQYPVLINDLGGWNNDGNSLMQRVLEKHGLKLNIAGRLGYINSIFTALHTSNAITYTSAASIPQSIPGLTLLRGPKEVNEVDCFYRLYISRMRYGSQETNYLIDFIYDSFKHFLTQQYNRIDIAAVINK | not soluble
13 | MLNNGTFPLVFQFIHRRRKLLYYTKYHIFQQQLADGALEVEYCEASLYSMKEIKEINRELKRDYKRFQNRILELERNNEEYLVDDIVEFKKKKSHRSYLLMQYIETQISYKKKMGKDGIAAAYHSTYISLKKYIGMKSARKSDIRMEEINFSFVVGYEDYLNAQGLARNTINYYLRNFRTIYNSSIRDGFKPKSENPFTYIQTKPCKTIKRAINKDDMKKLSSLILPVHSGMDIARDMYLFSFYAQGMAFVDIVFLKKKNIRDGILSYRRHKSQQLIHIVITPQMQGLIDKYANDSEYVFPIIDTSLSTSIYDQYRLALGRVNRYLKKITFRLNINVRLTTYTARHTWATLARESGAPISIISAGLGHTSEEMTRVYLKEFDQETLARVNRIVTNLL | not soluble
14 | MRAIVFVKATKSSEEGVMPTTELMEAMGKFNEELVNAGIMQSGDGLHPSSKGKRVVFDGDSRTVVNGPFPHTNELVAGFWIWKVKDMDEAVEWVKRCPNPMLEKSEIEIRPMFEMEDFGDAVTPEIAAHVEELRARVGKQ | not soluble
15 | MGSDKIHHHHHHMYMYVNDKLVKEEEAIISPFDHGYMYGLGLFETFRLYEGHPFLLDDHFVRLEEGLRALAIDWTYNRSHVLHQLATLCNKNGVRNAYIRWNVSAGPGPIGLYTDTYKEPTVIIYMKSLPQGLSTRKTGTLLELRRNTPEGDRRLKSHHFLNNVLGKREVAKDPQTEGIFLTEDGVLAEGLTSNVFWVKNGVVYTPSVDTGILNGITRQFVLTLCDKEGIPWREGRYPKEALLKADGAFITNSIQEIVTLTSVGQAEFNQDEAVIMSLRKSYQKYCTKLWSKNEIKEGKQDVNNTCK | not soluble
16 | MGSDKIHHHHHHMNYDDPKKKVGRNIKRLRLKAGIKSQAALAELCGWKSQSRVGNYEAGTRAVSAIDAETLAKVLNVTPAEILYGENNKDDDFVSMPSAQYSSGPYEEEDPFQLFKPKQELQNAEWHAGFELWDGDTPLRDDEVALPFYREVELAAGSGSTFVQENGGCKLRFAKSTLKKSRVEPSNAACVTVSGNSMLPVLRHGTTVGVDTSKKSIIDGEMYAIDHDGMLRVKMLYRTPGGGIRIKSYNNDEFPDEFIPPEKASDIKIIGWVFWWSVLNVWNN | not soluble
17 | PTSSTTATLVMGDALAVALLKARGFTAEDFALSHPGGALGRKLLLRVNDIMHTGDEIPHVKKTASLRDALLEVTRKNLGMTVICDDNMMIEGIFTDGDLRRVFDMGVDVRRLSIADVMTPGGIRVRPGILAVEALNLMQSRHITSVMVADGDHLLGVLHMHDLLRA | not soluble
18 | MIATGDALNLLSKMTFKRLITLLKVFVSYQYSKITGNVVHPSVPYSIAIEPTTSCNLRCPECPSGLRSFTRPTGMLNIAMFSKIIDELYQQISYLIFYFQGEPYLNTSFLEMVKYASSKGIYTATSTNAHYLTDENARKTVESGLDRLIISIDGTTQEVYEQYRIGGSLEKVLEGTKNILAWKKKLHASTPHVIFQFLVVKPNQHQLKEVKKMAKELGVGEVRFKTAQIHDYENGSPLIPDIDKYARYRKNADNTYSIKNSLLNHCWKMWHSCVITWDGKIVPCCFDKDAHLVMGELKTNTFKEIWNSAPYIQFRKSLLKSRSEIDMCKNCTEGTTVWA | not soluble
19 | MAHHHHHHMRLTPLRCSAAAFHFTSLLLQGSGGGYRFFEDMYPKHDPAPRYRYYEDQMQSPTVRSLEPKKQMTETEKLHHLHDWKKDKEGLTPPPEFGWPEEWGPEPGEEGHSEWYRKNRMYMSYEEKSRYDLRVGVPVEKNSMRHQEMPYQKRMKAAYVNLEEKNPQYFDPRQRKYWAEYSYEDQRDTMAKARDDYIKEWLDEPGVTKENVAKKIGDYNGTAKNQNVKSVQRRPEWELAPRPEYDDD | not soluble
20 | MGSDKIHHHHHHMRNSNLSKKPFIITIASTKGGSAKSTNAANIGAFCADHGLKTLLIDTDTQPTLSAYFALNYVAPGGIHEFLTYQDVEPSHIISKTTLSNLDLIQSNDPTNNVSQMLRNAPDGAIRFSFLLKKLKGYDVIIVDTRGTRDITVDMSVLAADLLFCPILPHILSAKEFIRGTMGMYQELQTFEAFGFSLPPLKAVPNCVDHTNDVKFVLGHLKQLFEQNLSADKTLLDFHIPNKVAYREAATYSLPVYRHSKAEYVVIQALCMHLLPQFAHQFEQGLSGHLGGHNV | not soluble
21 | MILNIRKMGNSQGVILPKSLLGQIGAVDSLAVTVEKGNIILSCPTVRRGWAEAAAMLVETEQEHFFSEIENEADKEWIW | not soluble
22 | MRTVALGIVAMACLVAIAHGGNFFQDAEVSWGQGRGKIVDGGRGLDLTLDRSSGSGFQSKSEYLFGKIDMQIKLVPGNSAGTVTTFYLSSQGSTHDEIDFEFLGNVTGEPYTLHTNVFTQGQGQREQQFRLWFDPTQSFHTYSIIWNPQHVIFAVDGTPIRDFKNHEARGVAFPKSQPMRVYASLWNADDWATQGGRVKADWSKAPFVASFRDFNADACVWSNGAQRCPVGTMETVAAPAGGRRGGAGGWWNQELSDMSYRRMRWVQRKFMIYNYCTDAKRFPQGTPAECKLR | soluble
